Substitutions are numbered along the chain they refer to. Each block holds one binder with its values, some of them ahead of it.
Key:
[1] = biological target: T1, cynomologous monkey FGFR1c/cynomologous monkey β-Klotho (co-transfected) (cynomologous monkey); test: flow cytometry, transfected HEK293T; mock-transfected cells 695
T1 construct: whole, on cells; also called Cyno FGFR1c/Cyno β-Klotho
Procedure: (§1) This solution was then added dropwise to 10 million HEK293T cells in 10 ml of media. 24 hours following transfection, the cells were washed and 50,000 cells were stained with each primary antibody, 50 μl of unpurified hybridoma supernatant was diluted 1:2 and used for staining cells. After a one hour incubation at 4° c., the cells were washed and an anti-Human Fc-specific secondary was added. Stained cells were then analyzed on a flow cytometer.

[2] = biological target: T2, human FGFR1c (human, UniProt P11362 22-822); test: as above
T2 construct: Full length (GenBank NP-075598), expressed on transfected 293T cells; also called huFGFR1c; FGFR1c alone
Procedure: as §1

[3] = biological target: T3, human FGFR1c/human β-Klotho complex (FGF21 receptor) (human, UniProt P11362 22-822); test: as above
T3 construct: Both full-length proteins co-expressed on cells (HEK293T, CHO, L6); also called HuFGFR1c/Hu β-Klotho; huFGF21R
Procedure: as §1

[4] = biological target: T1, cynomologous monkey FGFR1c/cynomologous …; test: flow cytometry, transfected HEK293T; mock-transfected cells 688
Procedure: as §1

[5] = biological target: T3, human FGFR1c/human β-Klotho complex …; test: as above
Procedure: as §1

[6] = biological target: T1, cynomologous monkey FGFR1c/cynomologous …; test: flow cytometry, transfected HEK293T; mock-transfected cells 705
Procedure: as §1

[7] = biological target: T2, human FGFR1c; test: as above
Procedure: as §1

[8] = biological target: T3, human FGFR1c/human β-Klotho complex …; test: as above
Procedure: as §1

[9] = biological target: T1, cynomologous monkey FGFR1c/cynomologous …; test: flow cytometry, transfected HEK293T; mock-transfected cells 632
Procedure: as §1

[10] = biological target: T2, human FGFR1c; test: as above
Procedure: as §1

[11] = biological target: T3, human FGFR1c/human β-Klotho complex …; test: as above
Procedure: as §1

B2: 67C10.1 (antibody, V domains shown)
VH: EVQLVQSGAEVKKPGESLKISCQGSGYSFSSYWIGWVRQMPGKGLEWMGIIYPGDSDTRYSPSFQGQVTISADKSINTAYLQWSSLKASDTAIYYCARRASRGYRYGLAFAIWGQGTMVTVSS
VL: DFVMTQTPLSLPVTPGEPASISCRSSQSLLNSDDGNTYLDWYLQKPGQSPQLLIYTLSYRASGVPDRFSGSGSGTDFTLKISRVEAEDVGVYYCMQRIEFPITFGQGTRLEIKR
GeoMean [4]: 4060
GeoMean [5]: 18900

B3: 65C3.1 (antibody, V domains shown)
VH: QVQLQESGPGLVKPSETLSLTCTVSGGSISSYYWSWIRQPPGKGLEWIGYIYYTGSTNYNPSLKSRVTISVDTSKNQFSLKLSSVTAADTAVYYCAREYYYGSGSYYPWGQGTLVTVSS
VL: EMVMTQSPATLSVSPGERATLSCRASQSVSSQLAWYQEKPGRAPRLLIYGASNRAIDIPARLSGSGSGTEFTLTISSLQSEDFAVYYCQQYNNWPWTFGQGTKVEFKR
GeoMean [6]: 24600
GeoMean [7]: 719
GeoMean [8]: 18800

Continued, values first:

GeoMean [1]: 21600
GeoMean [2]: 780
GeoMean [3]: 16700
B1: 66G2.1 (antibody, V domains shown)
VH: QVQLVESGGGVVQPGRSLRLSCAASGFTFSSYGMHWVRQAPGKGLEWVAGISYDGSNKNYADSVKGRITISRDNPKNTLYLQMNSLRAEDTAVYYCATTVTKEDYYYYGMDVWGQGTTVTVSS
VL: DIQMTQSPSSLSASVGDRVTITCRASQGIRNDLGWYQQKPGKAPKRLIYAASNLQSGVPSRFSGSGSGTKFTLTINSLQPEDFATYYCLQLNGYPLTFGGGTKVEIKR

GeoMean [9]: 15800
GeoMean [10]: 757
GeoMean [11]: 13900
B4: 67F5.1 (antibody, V domains shown)
VH: B3 VH with Q5K, T54S, S56N
VL: EIVMTQSPATLSVSPGERVTLSCRASQSVSSNLAWYQQKPGQAPRLLIHGSSNRAIGIPARFSGSGSGTEFTLTISSLQSADFAVYNCQQYEIWPWTFGQGTKVEIKR
